Data reported in paper PMC6706414.

Biological target: Mimic of H2B ubiquitinated nucleosome core particle with H3K36M (ubiquitin fused to H2A R17, H2B, H3K36M, H4, 149 bp 601 DNA) (S. cerevisiae | Xenopus laevis) (UniProt P0CG63)
Experiment: native gel or EMSA; native PAGE; NCPs and Set2 incubated for 1 h on ice in 25 mM HEPES, pH 7.5, 50 mM NaCl, 1 mM DTT, 160 μm SAM

Sequence of UniProt P0CG63 (P0CG63 whole entry, looked up, the tested form may be a part): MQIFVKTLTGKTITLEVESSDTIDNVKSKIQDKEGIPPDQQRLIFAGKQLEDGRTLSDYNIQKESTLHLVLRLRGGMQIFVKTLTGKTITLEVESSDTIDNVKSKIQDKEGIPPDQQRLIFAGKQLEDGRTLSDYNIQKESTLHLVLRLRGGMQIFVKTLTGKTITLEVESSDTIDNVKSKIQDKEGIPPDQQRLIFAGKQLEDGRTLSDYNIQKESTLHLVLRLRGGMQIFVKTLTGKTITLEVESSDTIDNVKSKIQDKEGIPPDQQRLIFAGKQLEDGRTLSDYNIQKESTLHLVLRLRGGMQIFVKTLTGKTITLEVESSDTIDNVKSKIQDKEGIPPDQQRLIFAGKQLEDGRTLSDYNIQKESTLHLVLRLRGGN

percent of the NCP band shifted at twofold excess of Set2: 50%
Substance: Chaetomium thermophilum Set2 methyltransferase, full-length (enzyme)
